From patent US20190284242A1 (University of Washington, published 2019) come the findings set out here.

Test [1] deals with T1, I32-06B.
T1 construct: also called trimer component of I32-06
Nature of the test: negative stain electron microscopy class averages of the assembled nanostructure.

For test [2], the target named is T2, I52-33B.
T2 construct: also called dimer component of I52-33
T2 chain: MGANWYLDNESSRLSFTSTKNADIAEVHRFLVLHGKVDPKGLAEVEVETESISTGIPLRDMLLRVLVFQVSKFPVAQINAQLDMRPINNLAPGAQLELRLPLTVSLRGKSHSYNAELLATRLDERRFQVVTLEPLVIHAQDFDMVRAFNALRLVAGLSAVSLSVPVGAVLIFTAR
Put plainly: size exclusion chromatography (Superose 6 10/300) of co-expressed, purified pair.

T1 sequence (chain, as listed by the source): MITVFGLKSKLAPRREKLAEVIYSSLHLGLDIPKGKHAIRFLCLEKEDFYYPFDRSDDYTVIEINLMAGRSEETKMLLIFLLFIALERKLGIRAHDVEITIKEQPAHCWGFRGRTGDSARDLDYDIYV

B1: I32-06A (designed binder)
chain: MTDYIRDGSAIKALSFAIILAEADLRHIPQDLQRLAVRVIHACGMVDVANDLAFSEGAGKAGRNALLAGAPILCDARMVAEGITRSRLPADNRVIYTLSDPSVPELAKKIGNTRSAAALDLWLPHIEGSIVAIGNAPTALFRLFELLDAGAPKPALIIGMPVGFVGAAESKDELAANSRGVPYVIVRGRRGGSAMTAAAVNALASERE
notes: also called dimer component of I32-06
Regarding B1, the binding result in test [1] is “binds”.

B2: I52-33A (designed binder)
chain: MAVKGLGEVDQKYDGSKLRIGILHARWNRKIILALVAGAVLRLLEFGVKAENIIIETVPGSFELPYGSKLFVEKQKRLGKPLDAIIPIGVLIKGSTMHFEYICDSTTHQLMKLNFELGIPVIFGVLTCLTDEQAEARAGLIEGKMHNHGEDWGAAAVEMATKFN
notes: also called pentamer component of I52-33
For B2, in test [2], the binding result was “binds”.
